From paper PMC7476095

Legend:
KU80 [1] = target: KU80 (UniProt P13010); assay: anti-FLAG co-IP, KU80 blot; conditions: reference: wild type, IR 6 Gy; sites S214
KU80 [2] = target: KU80 (UniProt P13010); assay: anti-KU80 co-IP, MAD1 blot; conditions: reference: wild type, IR 6 Gy; sites S214

binding against the reference (KU80 [1]): weaker | binding against the reference (KU80 [2]): weaker
Substance: MAD1 (mitotic arrest-deficient protein 1) (from UniProt Q9Y6D9) S214A, IR 6 Gy
